Test results published in article doi:10.1101/2024.01.10.575016, “Cell Cycle Regulation has Shaped Budding Yeast Replication Origin Structure and Function” (bioRxiv, 2024).

Experiments:
[1] = target: T1, Mcm3 (budding yeast, UniProt P24279 1-971); experiment: cryo-EM structure; MCM loading reaction on nucleosome-flanked ARS1 DNA (15 nM) with CDK-phosphorylated Orc6-4A ORC (40 nM) and MCM-Cdt1 (80 nM), 2.2 mM ATP, 30°C 30 min; SH and DH particles from the same data; settings: both partners purified
T1 construct: Mcm3, budding yeast
T1 sequence (P24279 whole entry): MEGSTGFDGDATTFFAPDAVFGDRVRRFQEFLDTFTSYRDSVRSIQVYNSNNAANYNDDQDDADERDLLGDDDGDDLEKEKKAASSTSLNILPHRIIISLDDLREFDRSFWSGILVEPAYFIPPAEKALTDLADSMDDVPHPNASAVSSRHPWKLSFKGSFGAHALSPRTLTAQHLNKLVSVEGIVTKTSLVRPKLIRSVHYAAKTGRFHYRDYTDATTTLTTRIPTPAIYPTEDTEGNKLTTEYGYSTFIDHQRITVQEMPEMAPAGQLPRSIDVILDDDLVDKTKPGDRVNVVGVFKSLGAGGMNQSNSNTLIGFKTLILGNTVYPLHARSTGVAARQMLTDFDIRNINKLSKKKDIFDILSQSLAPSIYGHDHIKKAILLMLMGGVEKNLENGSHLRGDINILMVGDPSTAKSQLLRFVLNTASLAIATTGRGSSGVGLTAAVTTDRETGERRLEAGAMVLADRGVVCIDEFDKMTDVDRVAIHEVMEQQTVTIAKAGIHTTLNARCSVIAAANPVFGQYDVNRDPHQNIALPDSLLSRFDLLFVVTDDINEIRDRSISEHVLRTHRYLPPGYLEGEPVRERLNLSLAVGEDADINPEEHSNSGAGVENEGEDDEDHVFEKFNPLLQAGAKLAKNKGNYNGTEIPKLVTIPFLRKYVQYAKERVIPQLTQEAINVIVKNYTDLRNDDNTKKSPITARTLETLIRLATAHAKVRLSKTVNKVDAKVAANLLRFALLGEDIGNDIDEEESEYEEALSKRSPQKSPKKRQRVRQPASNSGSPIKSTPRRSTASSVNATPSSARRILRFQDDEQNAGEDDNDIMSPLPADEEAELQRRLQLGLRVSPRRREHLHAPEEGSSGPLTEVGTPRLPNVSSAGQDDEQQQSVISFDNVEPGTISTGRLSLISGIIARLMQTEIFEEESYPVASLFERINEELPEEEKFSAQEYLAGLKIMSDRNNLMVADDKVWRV

[2] = target: T2, Mcm4 (budding yeast, UniProt P30665 1-933); experiment: as above; settings: both partners purified
T2 construct: Mcm4, budding yeast
T2 sequence: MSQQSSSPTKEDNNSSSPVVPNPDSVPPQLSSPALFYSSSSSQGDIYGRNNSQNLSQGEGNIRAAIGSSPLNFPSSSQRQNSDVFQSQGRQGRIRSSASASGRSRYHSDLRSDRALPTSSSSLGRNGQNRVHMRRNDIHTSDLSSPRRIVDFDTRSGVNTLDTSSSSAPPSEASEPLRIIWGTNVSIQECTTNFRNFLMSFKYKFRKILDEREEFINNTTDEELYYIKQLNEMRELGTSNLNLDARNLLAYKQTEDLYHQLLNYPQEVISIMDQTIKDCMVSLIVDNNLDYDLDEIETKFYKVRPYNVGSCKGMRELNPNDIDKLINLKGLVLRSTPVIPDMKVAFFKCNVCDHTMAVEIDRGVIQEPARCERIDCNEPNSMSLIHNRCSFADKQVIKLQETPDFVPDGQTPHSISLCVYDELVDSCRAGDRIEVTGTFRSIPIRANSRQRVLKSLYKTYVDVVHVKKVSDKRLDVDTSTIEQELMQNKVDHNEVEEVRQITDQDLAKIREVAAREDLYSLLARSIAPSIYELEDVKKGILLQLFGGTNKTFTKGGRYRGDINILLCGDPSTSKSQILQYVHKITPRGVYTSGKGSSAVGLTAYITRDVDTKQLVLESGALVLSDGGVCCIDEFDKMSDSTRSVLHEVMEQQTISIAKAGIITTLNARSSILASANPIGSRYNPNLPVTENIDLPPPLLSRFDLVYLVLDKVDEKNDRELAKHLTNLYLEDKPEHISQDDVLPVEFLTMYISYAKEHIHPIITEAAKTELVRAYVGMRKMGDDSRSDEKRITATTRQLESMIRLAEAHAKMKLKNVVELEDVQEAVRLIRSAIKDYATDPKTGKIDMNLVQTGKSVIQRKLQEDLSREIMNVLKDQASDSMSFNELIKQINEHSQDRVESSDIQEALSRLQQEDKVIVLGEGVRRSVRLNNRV

B1: Mcm7 (natural protein, budding yeast)
chain: MSAALPSIQLPVDYNNLFNEITDFLVTFKQDTLSSDATRNENEDENLDAENIEQHLLEKGPKYMAMLQKVANRELNSVIIDLDDILQYQNEKFLQGTQADDLVSAIQQNANHFTELFCRAIDNNMPLPTKEIDYKDDVLDVILNQRRLRNERMLSDRTNEIRSENLMDTTMDPPSSMNDALREVVEDETELFPPNLTRRYFLYFKPLSQNCARRYRKKAISSKPLSVRQIKGDFLGQLITVRGIITRVSDVKPAVEVIAYTCDQCGYEVFQEVNSRTFTPLSECTSEECSQNQTKGQLFMSTRASKFSAFQECKIQELSQQVPVGHIPRSLNIHVNGTLVRSLSPGDIVDVTGIFLPAPYTGFKALKAGLLTETYLEAQFVRQHKKKFASFSLTSDVEERVMELITSGDVYNRLAKSIAPEIYGNLDVKKALLLLLVGGVDKRVGDGMKIRGDINVCLMGDPGVAKSQLLKAICKISPRGVYTTGKGSSGVGLTAAVMKDPVTDEMILEGGALVLADNGICCIDEFDKMDESDRTAIHEVMEQQTISISKAGINTTLNARTSILAAANPLYGRYNPRLSPLDNINLPAALLSRFDILFLMLDIPSRDDDEKLAEHVTYVHMHNKQPDLDFTPVEPSKMREYIAYAKTKRPVMSEAVNDYVVQAYIRLRQDSKREMDSKFSFGQATPRTLLGIIRLSQALAKLRLADMVDIDDVEEALRLVRVSKESLYQETNKSKEDESPTTKIFTIIKKMLQETGKNTLSYENIVKTVRLRGFTMLQLSNCIQEYSYLNVWHLINEGNTLKFVDDGTMDTDQEDSLVSTPKLAPQTTASANVSAQDSDIDLQDA
notes: Mcm7, budding yeast
- binding result [1]: binds
- binding result [2]: binds
